Data taken from FireProtDB (doi:10.1016/j.jmb.2005.06.006).
“And” between values parts separate entries of the source, which are not always exact repeats. Equal entries are not always repeated.

B1: Tryptophan synthase alpha chain, P0A877 (parent)
chain: MERYESLFAQLKERKEGAFVPFVTLGDPGIEQSLKIIDTLIEAGADALELGIPFSDPLADGPTIQNATLRAFAAGVTPAQCFEMLALIRQKHPTIPIGLLMYANLVFNKGIDEFYAQCEKVGVDSVLVADVPVEESAPFRQAALRHNVAPIFICPPNADDDLLRQIASYGRGYTYLLSRAGVTGAENRAALPLNHLVAKLKEYNAAPPLQGFGISAPDQVKAAIDAGAAGAISGSAIVKIIEQHINEPEKMLAALKVFVQPMKAATRS

Variants of: B1
Settings: Escherichia coli (strain K12); pH 7.8; 25 °C; Urea; CD; Potassium phosphate 10 mM; transition: 3; structure 1WQ5; whole UniProt chain shown

Variant	ddG of mutation (higher = less stable)	unfolding free energy	denaturant m value
I37A	1.41 kcal/mol and 3.01 kcal/mol	4.72 kcal/mol and 1.71 kcal/mol	–
L176A	2.88 kcal/mol and 1.13 kcal/mol	3.25 kcal/mol and 3.59 kcal/mol	2.16 kcal/mol/M and 1.01 kcal/mol/M
L99A	1.69 kcal/mol and 2.38 kcal/mol	4.44 kcal/mol and 2.34 kcal/mol	2.39 kcal/mol/M and 0.94 kcal/mol/M
L127A	0.73 kcal/mol and 0.55 kcal/mol	5.4 kcal/mol and 4.17 kcal/mol	2.55 kcal/mol/M and 1.1 kcal/mol/M
